# Measurements published in article PMC11852808.
# Conditions: acetylation at K3
substance,measurement,value
protein VII: K3Q acetyl mimic,localisation_or_trafficking,no change
